From the DeepSol protein solubility set

Experiment: soluble on expression in E. coli; label from the status in PepcDB or PDB records

Sequence	soluble on expression in E. coli
MFTQRKKWLSGVAAGLLMAASVSASAEEKILHIYNWSDYIAPDTLANFQKETGIKVVYDVFDSNEVLEGKLMAGSTGFDLVVPSASFLERQLSAGVFKPLDKSKLPNEKNLDPELLALVSKHDPDNKYAIPYLWATTGIGYNVEKVKAVLGEDAPVNSWDLVLKPENLEKLKSCGVSFLDAPSEIFATVLNYLGKDPNSTLTADYTGSATDLLLKLRPNIRYFHSSQYINDLANGDICVAVGWAGDIMQASNRAKEAKNGVNVAYSIPKEGALAFFDVFAMPTDAKNQDEAYQFLNYLMRPDVIANISNHVFYANANQAATPLVNAEVRDNPGIYPPADVRAKMFTLKVQDPKIDRVITRAWTKVKSGK	not soluble
MFTQVKPYLSLPGFSCVLVNAGIVPPDLNQNFRVAFFNEKKSLNFYVLEKLFLNAEVKLLKPQKETEETFDFIISEIPFSHAFEEERKGLSNSIRNSLKEKGVLFIEYDSKPGSTPKEEFIRFIRLFLKKVESEQVKTDLEVILSRPSYFWARNNETRLYFLEKARRFNDDFVKREITNENYRIFSHDEVHELLKDCMLSFAGRANLEMNDPEIVLFPSHLATLARCGKNNLCKEAVIDFVLDTKQRRDIYAKFPEVDQEKAIESVADKFFLIPRQSPKNLRREVLLPGGHKLSLSEPVYDFFFVNSEEPRRLSEHPLYEKSKKTAWKAFYRVLSTGEFILCVNDDLLEDAKDELPESFELTPPNDEILKVSFENLEDTYLVSNATKGPAVHLNTLEVILLWFASEKGKTKAKEEAVKFLKSREEFIKLGTNIVKAREVKEEDINKTAEKLFKGRKAFNLNRLKIIRER	not soluble
MFVFDATPLIYLAKAERLSLLSRLDASRLIPQRVYEEVVTVGLDAGYPDARRIEQSVEEGTFDVVSVPETTLFDRLSGNPNVSDADVAVLALAADHGATAVMDDAYGRDIAAVEAIETRGTAYLVLSLVRDGELEADDARETLEAMLDAGWHCSPSLYSKLLSKLEELAVGGADNRLEHHHHHH	not soluble
MFVVKDCCQMIEVLFFIFKTNFKNCFPKMRKSKMYKSEPYSKKTIKIKKATDCGVITNIFSHFNEYVKQTIR	soluble
MFYAHNVDFRVFADFLYLLRVRNSGNVVLILDNASFHKSSYVLATASRLNINLLFLPPYSLDLNRIEFGRI	soluble
MGACWSDNPKKVLEMLSPMNIIAITRSIPENTPNSWFIYWLTKVEEGEVRENIYAISPTKLEILPDLVKKALKLGYDGVYIDGIEALVIENGFKSVAKFLLHIKDIVLAENKFIILTLDPRALKEEEIKIIEKEFKKLELSLEHHHHHH	not soluble
MGCKISTEFCSDNPVGSISTSKVHPTDLSTPSYAIKPVEFYEEPLKDDQLFYKVALAKKEYREKEKDKKEQLSSNRRVSLQVEPNKLPIPLTRSSSLSSIMENRPPSGISNSSFIRSRNTASRRFTIDTSRAKSNQYVVSLCSKKIGIIEYPDGRSDKQPCDVYWHNVVLSDMNKIVTSPQSRVNKFPGMTELAKKISLTHSISSMQKLFPDEYAFYPNSWFLPAHLADFHAFYRKAQALGKTEMWFIVKPDEGAQGTGIYLINSPNQIRNVDQRQLVQEYVADPLLMNDKLKFDFRVYGVIKSINPLSIYVAREGMARFCTEKYEKPDSSNFKNLYAHLTNYSLNKANEAYVHSNTLQDQTRGSKRLLSTVFHQLESRGVKTKRLWHDIKLILVKTTLAMLPEIMLHYEHHFYDSTGPQCFQIMGFDVMIREDGTPILLEVNAAPSLTADHIVPHPGRTLLEGGQRVRSIVDEVIKIPLVRDTLLLVLGLMEEEYQNNSLKGETKSLDDMQTIKQRRKPHLSEIFPTRYGAHSGHLLFLDKAMYIYMQFVQLRSNVNITNAGLKQFVRKCNLIDIIPVVHVDAKVSEINYYFTGEKRTNGNGLPFHAFLMFLFFIAEKKFVLENDLLSKVQRLLSFCDMSLRRYGVRSARLRRAEVDSTIGNVEIYMLPSRMARNRSGTNGRKQNFTDDNNNPNSFAHLPKINERL	not soluble
MGCMKSKETFPFPTTLDIDKLHESEEAFIPDDSSQYRTPSPGEQQQVQEVKKLPEPGAVIGALILEFADRLASEIVEDALQQWACENIQYYNIPYIESEGSDTTIN	soluble
MGCSHSKNKNSKSKSAILKKEHPLERSIHHNRVAHFDETQPTSQSTSVESEELNVKHYSKTLLNDTVEPTHQKTSAHVPEKSIKKQEVKQEVKKHETTTVVHTNVHVPKPTHKLPQASEIPIERMGSDPHTAIAPTYQQKQFATSTYYPMPTIGEKQKSPEKAKPARKVDNTDEKKRKKDQNEKPVINGPNVRHQLTPEDLEYIKRSVQQRNERRAFMMAHRNETDDTLYELEVRMPEKDYTNRMEVGQNYRVC	not soluble
MGDCDIEGKDGKQYESVLMVSIDQLLDSMKEIGSNCLNNEFNFFKRHICDANKEGMFLFRAARKLRQFLKMNSTGDFDLHLLKVSEGTTILLNCTGQVKGRKPAALGAAQPTKSLEENKSLKEQKKLNDLCFLKRLLQEIKTCWNKILMGTKEH	soluble
MGDDLDSLTDQLSSGFQVDPLALGEHPRYSQYKNLTKAAEQQAKRREETLERQKNGRFDTFMKLRNLAFDDVTSDEDDEQKIETTTAEKHTGKFKKYADKMMLSEWLVDIPESLSSDWTMVMAPVGKRTLVVASRGFTVAYNKGGREVSRFQSRLPGGNTRAKNQAWTILDCIYSNQTYYVLDLLSWNAHEYVESPYDFRQFMLKSKLEEAPELAKSTPGFRNIFSPIPSCPCSQDQMAELMKNEISFRLDGLLFYHNSVVYQPGQSPLVGWLKPWMLPEILNVPVPEKYKAESNGQSSSQFIESFNQKHKHQSKIDRSMEH	not soluble
MGDVSKLSSNQVKLLETAFRDFETPEGSGRVSTDQIGIILEVLGIQQTKSTIRQLIDEFDPFGNGDIDFDSFKIIGARFLGEEVNPEQMQQELREAFRLYDKEGNGYISTDVMREILAELDETLSSEDLDAMIDEIDADGSGTVDFEEFMGVMTGGDE	soluble
MGDYDYLIKFLALGDSGVGKTSFLHRYTDNTFTGQFISTVGIDFKEKKVVYKSSRGGFGGRGQRVLLQLWDTAGQERFRSLTTAFFRDAMGFILIFDITNEQSFLNIRDWLSQLKVHAYCEQPDIIICGNKADLENRRQVSTARAKQLADQLGLPYFETSACTSTNVEKSVDCLLDLVMQRIQQSVETSSLPLSECRGVSLDGDPSAASSYCANC	not soluble
MGENSLWNVYKTVSFWKVMKNFIIIQIARYTPCLSVKNWLYRTFLRMKVGKKTSFALMVMPDIMFPEKITVGENSIIGYNTTLLAHEYLIREYRLGEIVIGNEVMIGANVTILPGVKIGDGATVSAGTLVHRDVPSGAFVGGNPMRIIYTLEHHHHHH	soluble
MGEQDPSDRLRGDQLKEPNQNGKGSFSQFSSSVRAMVRIRMKYQAIKKRRMEIASATPQIFTSPRSTSPKVFTFDNLHEPVNSNPASPRKRKKKRKGRVLYPTSSLRAVPTKESSRAKNCLYLLCIIVFLQVYNAIENLDDHVLKYDLEGLEKTLKREVFGQQEVAEGLLGHLQDYLSTYVHNKPLVLSFHGPTGVGKSHVGRLLAQHFRSVVGEELVMQYFVLHHCPTDDDIPVCTKSLESHISEMVSQGEEEEKIPVFIFDEVEHMPRQLMDTLRELIQPQNSNKYLNAIYILISNLGHEDITKFVLHNSSIAISGRLSLTQELTPWLRNYLQEHHGLFLDAEYLPFMLLEKSHVMDCFIDEMSREGFYPDRSHVERLAEELSYYIVGEREFSHTGCRQVVAKVNLL	soluble
MGFDFLGFTVRQFPVGKYHSGKSSSGKLLGYKTLITPSKAKLKIHAQKIGKLIDEHKAVPQSDLIAHLNPVIRGWTNYYSCVVSKRIFNQADTTLFSQLKAWAEHRHPNKSSRWSCQKYWQTVGSDNWVFKPHNQKIRLLKHRETRLEHHHHHH	soluble
MGFFDRLKAGLAKTRERLLKAIPWGGNLEEVLEELEMALLAADVGLSATEEILQEVRASGRKDLKEAVKEKLVGMLEPDERRATLRKLGFNPQKPKPVEPKGRVVLVVGVNGVGKTTTIAKLGRYYQNLGKKVMFCAGDTFRAAGGTQLSEWGKRLSIPVIQGPEGTDPAALAYDAVQAMKARGYDLLFVDTAGRLHTKHNLMEELKKVKRAIAKADPEEPKEVWLVLDAVTGQNGLEQAKKFHEAVGLTGVIVTKLDGTAKGGVLIPIVRTLKVPIKFVGVGEGPDDLQPFDPEAFVEALLED	soluble
MGFFSSLSSLFGLGKKDVNIVVVGLDNSGKTTILNQLKTPETRSQQIVPTVGHVVTNFSTQNLSFHAFDMAGQMKYRSTWESYFHSSQGVIFVLDSSDRLRMELLKDELMMVMEHKDVVSRGIPIVILANKMDIPGAMTASDITVALGLNLYRSGTWSIHSTCALTGDGLDKAMQQLSAEITKYMESRRT	not soluble
MGFHLRGNNDFAFKRLYINLPQNSQMRAQLRRLIDNGSDTVVVSDKQDADAFLDVLSENRVKTISSLTPQGVVREYRITYRFSFQLRDAHDNLLIPPSEITLFRDLSYNETQVLAKDYEEAALYRDMQGDIVNQLVRRLASVRLPSLEHHHHHH	soluble
MGFHLRNSLALPPDTPAVKVQSAVQYSELAKLLRRGLKASGATLADEDAKTGFAQVQVLSERWGDLPIAIDSQGRAQEYSLRYAAIFTVTTANGAVLVPQQVIELSRDYVSPPVDATGTATEREILADELRKDMSASILRRIDSVVRARLKHGESLESTPTAPLPPAPVQPTTLPESSVPAALPPAPTSGNLEHHHHHH	not soluble
MGGRSAQPRRFSFACRILHPAVAHDAMAGSRYILRAPASIIRLAQHGWLHCCLHFFLFPAMNDVCFVAKGSALYLFTVEIIVFGSPSLRHNVLSFFYFALPWFKRQCRLKVNFNRLKEIRGIAQVVRKAFFISKTLPCI	soluble
MGGSHHHHHHGMASALAAVDIRDNLLGISWVDSSWIPILNSGSVLDYFSERSNPFYDRTCNNEVVKMQRLTLEHLNQMVGIEYILLHAQEPILFIIRKQQRQSPAQVIPLADYYIIAGVIYQAPDLGSVINSRVLTAVHGIQSAFDEAMSYCRYHPSKGYWWHFKDHEEQDKVRPKAKRKEEPSSIFQRQRVDALLLDLRQKFPPKFVQLKPGEKPVPVDQTKKEAEPIPETVKPEEKETTKNVQQTVSAKGPPEKRMRLQ	not soluble
MGGSHHHHHHGMASALELLSPQSPFRVDRGEHLPFLVKGARYTLVPAGQEGGGQTWRPLPGTTSPEDSSHLHRGQKKGAALGMAVYPYNCQAHAP	not soluble
MGHHHHHHGGHMSLETKHSNRARSRKGALRGAVLAGALMALVGCQTSPAATTSSNTGGTNMQLQLTQEWDKTFPLSAKVEHRKVTFANRYGITLAADLYLPKNRGGDRLPAIVIGGPFGAVKEQSSGLYAQTMAERGFVTLAFDPSYTGESGGQPRNVASPDINTEDFSAAVDFISLLPEVNRERIGVIGICGWGGMALNAVAVDKRVKAVVTSTMYDMTRVMSKGYNDSVTLEQRTRTLEQLGQQRWKDAESGTPAYQPPYNELKGGEAQFLVDYHDYYMTPRGYHPRAVNSGNAWTMTTPLSFMNMPILTYIKEISPRPILLIHGERAHSRYFSETAYAAAAEPKELLIVPGASHVDLYDRLDRIPFDRIAGFFDEHLEGGS	soluble
MGHHHHHHGGHMSLPNFFTPEFGPLRGVRVITTGSIIAGPTAGTILADLGAEVIHVERPKVGDTLRVVPPYFEADGKRIGGEFVCVTRNKLSVALDIKSEEGRKIFYELLKHADIFIENLVWLEERYGITDKDMLEANPRLVIVHVSGFGRSEFGGEDEKCGRGSYDIISQAYSGWCKLAAPPGMEVHRLPLYIGDYVTALFGVIGALSAYVYAKETGRGQVVDVAQFEAIARVIEMYYTMYHNLGINREGEGLRVFNTQPYGLYRVKDGWIAIGAIGPGLYQRFIQALAKATGINPADYPYEECAASPEAVNSEKGRELDRIFNEYLMSHTKEEVEKLFNAFRVPCSRVSTPEDVVRDRHWIERGDIIEVLDETTGRLVKQVGIVPKFSETPGRIWRGPPKLGSDTKKVLKGLLNLSDEQIDELKAKGVVDFEGGS	soluble
